According to the DeepSol protein solubility set:

Experiment: soluble on expression in E. coli; label from the status in PepcDB or PDB records
For “AIGEFMVSLPRMVYPQPKVLTPCRKDVLVVTPWLAPIVWEGTFNIDILNEQFRLQNTTIGLTVFAIKKYVAFLKLFLETAEKHFMVGHRVHYYVFTDQPAAVPRVTLGTGRQLSVLEVRAYKRWQDVSMRRMEMISDFCERRFLSEVDYLVCVDVDMEFRDHVGVEILTPLFGTLHPGFYGSSREAFTYERRPQSQAYIPKDEGDFYYLGGFFGGSVQEVQRLTRACHQAMMVDQANGIEAVWHDESHLNKYLLRHKPTKVLSPEYLWDQQLLGWPAVLRKLRFTAVPKNHQAVRNP”, the “soluble on expression in E. coli” value was “soluble”. With “MAHHHHHHSLTTVGLELINVSSSWDEGIVELFEKIKRENKANGQLTGDDGLFFTNLYVTPVLKNINLRLEEGMMLAVAGSTGSGKSSLLMMILGELVPSEGKIRHSGRISYSPQTSWIMPGTIRDNILFGLTYDEFRYTSIIRACQLEEDLDLLPEKDKTAIAEGGVTLSGGQRARICLARAVYKDADLYLLDAPFTHLDIATEKEIFDKCVCKLIASKTRVVVTSKLEHLKRADRILLLHNGDCYFYGTFSELQAQRPDFSSLLLGLGSYDNISAERRSSILTETLRRVSVDETAGFRGEG” the “soluble on expression in E. coli” value was “soluble”. For “MGHHHHHHSHMAIPITVLDCDLLLYGRGHRTLDRFKLDDVTDEYLMSMYGFPRQFIYYLVELLGANLSRPTQRSRAISPETQVLAALGFYTSGSFQTRMGDAIGISQASMSRCVANVTEALVERASQFIRFPADEASIQALKDEFYGLAGMPGVMGVVDCIHVAIKAPNAEDLSYVNRKGLHSLNCLMVCDIRGTLMTVETNWPGSLQDCAVLQQSSLSSQFEAGMHKDSWLLGDSSFFLRTWLMTPLHIPETPAEYRYNMAHSATHSVIEKTFRTLCSRFRCLDGSKGALQYSPEKSSHIILACCVLHNISLEHGMDVWSSPMTGPMEQPPEEEYEHMESLDLEADRIRQELMLTHFS”, the “soluble on expression in E. coli” value was “not soluble”. For “MALNGTPALNVNWHGNYDVIVLGFGGAGASAARFAADNGAHVLVVDAAPFGREGGNTRYSAQHVVTGESLDKLTAYYQALGAPFSTPTKTLNAYLSGMSKIPAYFEKYLGIKAVSWKHDIKPGDAVAIKKTMAEYPELAGSDTIDFALVHKRDKDAALWKLLRQKVLERADNIDVWLDSRAQHLIQDPNTKVIQGVQIKRGERLLNIHANNGVVLAMGGFENNPELKQTYLHSDNLTPLGTLYNRGDGIKMAQEVDAKMWHMTNYESHGILPGLEHHHHHH”, the “soluble on expression in E. coli” value was “not soluble”. In the case of “MALTNAQILAVIDSWEETVGQFPVITHHVPLGGGLQGTLHCYEIPLAAPYGVGFAKNGPTRWQYKRTINQVVHRWGSHTVPFLLEPDNINGKTCTASHLCHNTRCHNPLHLCWESADDNKGRNWCPGPNGGCVHAVVCLRQGPLYGPGATVAGPQQRGSHFVV”, the “soluble on expression in E. coli” value is reported as “soluble”. For “EEAKEGVPKVAYISLSPPFVGNYALDGSPRLRVYKADVALRVTGDEAAKTVKHHEPLIRNQLVALFTQQTVDSMSNVEAKEHLRQEALKQVQQVLEAEEGKPIVEDLLFNNLIVQ”, the “soluble on expression in E. coli” value was “not soluble”. In the case of “MSLRLPPPDARPIRVVCISDTHTLELADMPDGDLLIHAGDLCNDGSAKEIQAAVDWLRKLPHPQKVVICGNHDSYFDIRSRRFEDRDQSLATVSSSTASLRSVDDFDFPHCIDWGDIHYLQHSSVTVTFPPLPQTPSSSSALLASRPRSLTIYGAPQIPAIVPFGPEHAFAYPAHHDAWSGTIPPNTDIMVTHTPPQSHLDLSPVFSTGCPFLLSEAWRIRPALHVFGHVHAAYGREPVYWDEAQKAWERICSSRREGHHHHHH”, the “soluble on expression in E. coli” value is reported as “not soluble”. For “MMQVLTRPPSGMPALVLNADFRPLSYYPLSLWPWQEVIKAVFLDRVDVVASYDQVIHSPSCEMRLPSVVALKQYVPQERPPAFTRFNLFLRDSFSCQYCGSPEDLTFDHVIPRSRGGRTTWENIVTACAPCNLSKGGRTPREAGMQPFHTARRPSMYELQERGRRFPPGRLHVSWLDYLYWDIELEALEHHHHHH”, the “soluble on expression in E. coli” value was “not soluble”. With “MGSDKIHHHHHHMGEVYEKNNIDFDSIAKMLLIKYKDFILSKFKKAAPVENIRFQNLVHTNQFAQGVLGQSQHLCTVYDNPSWHSIVLETLDLDLIYKNVDKEFAKDGHAEGENIYTDYLVKELLRYFKQDFFKWCNKPDCNHCGQNTSENMTPLGSQGPNGEESKFNCGTVEIYKCNRCGNITRFPRYNDPIKLLETRKGRCGEWCNLFTLILKSFGLDVRYVWNREDHVWCEYFSNFLNRWVHVDSCEQSFDQPYIYSINWNKKMSYCIAFGKDGVVDVSKRYILQNELPRDQIKEEDLKFLCQFITKRLRYSLNDDEIYQLACRDEQEQIELIRGKTQETKSESVSAASKSSNRGRESGSADWKAQRGEDGK” the “soluble on expression in E. coli” value was “not soluble”. In the case of “MGSDKIHHHHHHMSRLIEQIKQKDACAFTHGGKFHADDVFSSALLLYINPEISITRGNSVPDDFTGIVFDIGRGEFDHHQKDSRIRENGVPYAAFGLLWEAVGADILGKELAVKFDESFVQPLDNNDNTGEKNELATLIGNFNPSWDYEGGSDEAFFQAVSVAGMILENKFERYRGNERADKRVEEVLAKHDPASRILVLPEFIPCQKALSETDIAFVIFPSNRGGFCIQPQKREYSMNYKCSFPAEWLGLEGEELVNATGIPGAIFCHKGGFIMTVKEQDEAVKACEKALSLHKDSSVIVWYGSKGDTAAMACDSQTDELLINVAKARGIKGVHICHVDAMPVPQLELTELDSETAYAEVLMEKPQWKAYVKEQVKQIVKYRPEAVYVEGNAFETYPVIRALRKKHIPVLTMIENKEKKIMVRIP”, the “soluble on expression in E. coli” value is reported as “not soluble”. In the case of “GMFVQSALHQLKVAVDTSIQMLDQYTEIDLKIAPIQSKRSLFEMYAHLSLICHADLLILNGSTEKELHTFYKEQTPETIAQMQKTMIQGYDLLSKTFLSYSNEQLAEMKTAYWGISYSRFEWLLEIVAHFYHHRGQIHILLCEHMKDPNIPLFQ”, the “soluble on expression in E. coli” value is reported as “soluble”. In the case of “HMSICTSEEWQGLMQFTLPVRLCKEIELFHFDIGPFENMWPGIFVYMVHRSCGTSCFELEKLCRFIMSVKKNYRRVPYHNWKHAVTVAHCMYAILQNNHTLFTDLERKGLLIACLCHDLDHRGFSNSYLQKFDHPLAALYSTSTMEQHHFSQTVSILQLEGHNIFSTLSSSEYEQVLEIIRKAIIATDLALYFGNRKQLEEMYQTGSLNLNNQSHRDRVIGLMMTACDLCSVTKLWPVTKLTANDIYAEFWAEGDEMKKLGIQPIPMMDRDKKDEVPQGQLGFYNAVAIPCYTTLTQILPPTEPLLKACRDNLSQWEKVIRGEETATWISSPSVAQKAAASED”, the “soluble on expression in E. coli” value is reported as “soluble”. In the case of “MGSDKIHHHHHHMKFIHTSDWHIGRQLHNQSLLDDQAFVLEQIIALADEHKVDAVIVAGDIYDRSIPPANAVALLDDVLNRLVHDLGLQVIMIAGNHDGHERLGFAAKQMAASGLHIIGPLSADIHPITLSSSSGDVVFYPLPYAEPATVRQVFECEAASHEAAMTLLLEQVRQHDSQGLPKVVISHCFLDGGSESESERPLSIGGADKISPTLFTEFDYVALGHLHGPQYKGAEHVRYSGSILKYSFSEQHQHKSVTLVELSAQTPIKIRLLPLTSIRDVRILEGELATLLVQGKTDIKREDYLMVRLLDKHAILDAMGKLRAVYPNVLHLERTGLMAGQQQVTLSRDHIKKGEMDMFRDFFSQVSGESLTQAQQAVMDELLTKLHNEERQA”, the “soluble on expression in E. coli” value is reported as “not soluble”. With “MKLNAIHHVAIIVSDYHLSKDFYVNKLGFEIIRENYRPDKHDYKLDLSCGRIELEIFGKVTSDPNYQAPPKRVSEPEFKSEACGLRHLAFRVTNIESYVDDLKSLGIPVEPIRHDDYTGEKMTFFFDPDGLPLELHE” the “soluble on expression in E. coli” value was “not soluble”. For “MGSDKIHHHHHHMKPSIYSLTRNDLIAWTIEHGEKKFRATQIWDWLYRKRVQSFEEMTNLSKDFIALLNENFLVNPLKQRIVQESADGTVKYLFELPDGMLIETVLMRQHYGLSVCVTTQVGCNIGCTFCASGLIKKQRDLNNGEITAQIMLVQKYFDERGQGERISHVVVMGIGEPFDNYDNVLKFLRTINDDNGLAIGARHITVSTSGLAHKIRDFANEGVQVNLAVSLHAPNNELRSSIMRINRSFPLEKLFAAIEYYIETTNRRVTFEYIMLNGVNDSPENAQELADLTKKIRKLSYVNLIPYNPVTEHDQYSRSPKERVDAFYDVLKKNGVNCVVRQEHGTDIDAACGQLRSNTMKRDREKATAGTAQ”, the “soluble on expression in E. coli” value was “not soluble”. In the case of “MERVASVLSALKPTLEKHQLGSWKPAEVDRLCAMLREYGKQERRDKCGTSCLDGAATALASLPSSSSVPPSLPSGGDDVEDENDADEEAFAGVVSEVDRCLSLVRDFLKRRMPFGAVVEPTLPAGTAERQAPQSSSADIISCKRARSLSGEPSSSAPTSNSVHSGAAVVEAPVYAVDAFLYAEGDIEKLVEAKKLAREYCCRCGSTDLGLVEFITHSFSQDQLVYLSCFLLPHLLDVVVASHEASRPLSIVDVGSRLGIVLWACAFALQRGLLAPAQAATTDAAADDAAPEVNLVGIELDATFVKISQDVARRFFAQRRRHAPKLVSVPQPAAANGVDAKLPDVSSSIQLLQSDCFEGAAASALSESSLVVMHNVFEYFCTTAVEHARCWLKLRRLVHRSGQFLVCSPALEVTLGTFTDEVWLQAWQLENGNDARGASTPLAWLASYVEPFDTADVASDFLTMRTLSCEGCDAGSDGDKHHEDHHGRSRDHHHHSSEDDEGDGEEASEMAEQIQRIYVYCVK”, the “soluble on expression in E. coli” value is reported as “not soluble”. For “MKQAIGFIDSGVGGLTVVREVLKQLPHEQVYYLGDTARCPYGPRDKEEVAKFTWEMTNFLVDRGIKMLVIACNTATAAALYDIREKLDIPVIGVIQPGSRAALKATRNNKIGVLGTLGTVESMAYPTALKGLNRRVEVDSLACPKFVSVVESGEYKSAIAKKVVAESLLPLKSTKIDTVILGCTHYPLLKPIIENFMGDGVAVINSGEETASEVSALLDYHNLLDATDEEIEHRFFTTGSTQIFKDIAKDWLNMPDMTVEHIKLGK”, the “soluble on expression in E. coli” value was “not soluble”. In the case of “MGSDKIHHHHHHASCDKFDEINTDPDATTKVTSSLLATGLLLDITSSSASKSFIYDELLAKQMAWGESMEDYQYNVFGRSGFGGYTTLINAQKMVESVSDDNVNAYDGLAHFIKAYKIFYMSMEMGDLPYEEALQGELGLVRPKYNTQKEVMNFILSDLETAYELFSTAKDFDGDPILGGSISKWKKATTAFQLKVLMHLSKKESDADLKVKERFARIVASGSLMESNEDNLQMKYADKANTVYPFHNTNTKHAGYAMLSTMLIDKFKATGDIRMFYYAKPAKAKLNEGVTADSWDAYIGTDPSLPFEQIEKAYATEQYSGFNARYTDYPSGEPVVRLGYAEQNFILAEAAVRGWISGDASAYYKKAIRAHMEFIASNTPDEEVYHHGHPITEEAIAAFLETPAIQLSGEKEEDIEKILTQRYLASFMQHPYDVYYDYRRTGYPVLPINPATNRNTMNDRLPMRWMYPKSESDYNLEHQNEALERQFGGVDDVNKLMWILQ”, the “soluble on expression in E. coli” value is reported as “not soluble”. For “MGSDKIHHHHHHMCMDRAICGNFYYGGKFDYLEVIVSDGKIAGIKKDAGNVPKTNYDGAILPAATDIHVHFRTPGETEKEDFGSGSLSAIYGGTTYVMDMPNNRFPITDYNAFGDKLGSIDSTSFADFSLYSMETGKNAMLLDRRSIGLKVYLGGSTNSTGTEVIEEGDIRKINEMNYPVVFHGESERCLKTHQMEEKNLRDHNLARPIDCEIEAAKYVSGLDIKTKIMAHVSSPDVTGNFLREVTPHHLLLNDEMPLGSFGKVNPPLRDSRTQKRLLDDYISGKFDILSSDHAPHTEDDKREFEFAKSGIIGVETRVPLFLALAQKKIVPLDVLYRTAIENPPSIFGIKKGKIEIGYDADFMVIDFTSMKRINDNRLHSKFPVSPFNGMDAIFPSHVIMRGNVVIDRYEDISDPMGVFIPKPQKE”, the “soluble on expression in E. coli” value was “not soluble”. For “MSEHQSLPAPEASTEVRVAIVGVGNCASSLVQGVEYYYNADDTSTVPGLMHVRFGPYHVRDVKFVAAFDVDAKKVGFDLSDAIFASENNTIKIADVAPTNVIVQRGPTLDGIGKYYADTIELSDAEPVDVVQALKEAKVDVLVSYLPVGSEEADKFYAQCAIDAGVAFVNALPVFIASDPVWAKKFTDARVPIVGDDIKSQVGATITHRVLAKLFEDRGVQLDRTMQLNVGGNMDFLNMLERERLESKKISKTQAVTSNLKREFKTKDVHIGPSDHVGWLDDRKWAYVRLEGRAFGDVPLNLEYKLEVWDSPNSAGVIIDAVRAAKIAKDRGIGGPVIPASAYLMKSPPEQLPDDIARAQLEEFIIG”, the “soluble on expression in E. coli” value was “soluble”.
